These results are taken from paper PMC10570035.

Read-outs that look alike come from different tables or passages of the source.

The target in experiment [1] is 40S ribosomal subunit (rabbit reticulocyte lysate) (rabbit (endogenous in rabbit reticulocyte lysate)) (UniProt G1TM55).
Experiment [2] has the same target. The source holds these as a separate data set.
For experiment [3] the target is unchanged. The source holds these as a separate data set.
The target is the same in experiment [4]. This is another data set of the same source.

Regarding “MBP-eIF2A-His6-FLAG (from UniProt Q9BY44-1 1-585) (natural protein)”, the in vitro translation of nLuc mRNA in 20% RRL, titration of recombinant protein (0-3.4 μM); IC50 of inhibition of translation in experiment [1] was determined as 0.37 µM. For the same substance, in experiment [2], the in vitro translation of CrPV IGR IRES nLuc mRNA in RRL, titration (0-3.4 μM); IC50 of inhibition of translation was determined as 0.63 µM; the in vitro translation of EMCV IRES nLuc mRNA in RRL, titration (0-3.4 μM); IC50 of inhibition of translation came out at 0.69 µM; the in vitro translation of HCV IRES nLuc mRNA in RRL, titration (0-3.4 μM); IC50 of inhibition of translation was determined as 0.49 µM; the in vitro translation of PV IRES nLuc mRNA in RRL, titration (0-3.4 μM); IC50 of inhibition of translation amounted to 0.84 µM.

Take “MBP-eIF2A-His6 (from UniProt Q9BY44-1 1-585) (natural protein)”: the in vitro translation of nLuc mRNA in 20% RRL, titration of recombinant protein (0-3.4 μM); IC50 of inhibition of translation in experiment [3] was 0.19 µM.

“tag-less eIF2A (from UniProt Q9BY44-1 1-585) (natural protein)”: the in vitro translation of nLuc mRNA in 20% RRL, titration of recombinant protein (0-3.4 μM); IC50 of inhibition of translation in experiment [4] is 0.13 µM.
